Laboratory results as given in patent US20220324962A1.

Experiments:
[1] = target: full-length human MISRII (human) (UniProt Q16671); experiment: cell-based or functional assay
[2] = target: active recombinant MIS (LRMIS) (human) (UniProt P03971); experiment: cell-based or functional assay
[3] = target: active recombinant MIS (LRMIS) (human) (UniProt P03971); experiment: sandwich ELISA: recombinant AMH (25 nM) captured on coated polyclonal anti-AMH, B10 titrated 666-0 nM, detected with anti-mouse Fc HRP

UniProt P03971, sequence (P03971 26-560): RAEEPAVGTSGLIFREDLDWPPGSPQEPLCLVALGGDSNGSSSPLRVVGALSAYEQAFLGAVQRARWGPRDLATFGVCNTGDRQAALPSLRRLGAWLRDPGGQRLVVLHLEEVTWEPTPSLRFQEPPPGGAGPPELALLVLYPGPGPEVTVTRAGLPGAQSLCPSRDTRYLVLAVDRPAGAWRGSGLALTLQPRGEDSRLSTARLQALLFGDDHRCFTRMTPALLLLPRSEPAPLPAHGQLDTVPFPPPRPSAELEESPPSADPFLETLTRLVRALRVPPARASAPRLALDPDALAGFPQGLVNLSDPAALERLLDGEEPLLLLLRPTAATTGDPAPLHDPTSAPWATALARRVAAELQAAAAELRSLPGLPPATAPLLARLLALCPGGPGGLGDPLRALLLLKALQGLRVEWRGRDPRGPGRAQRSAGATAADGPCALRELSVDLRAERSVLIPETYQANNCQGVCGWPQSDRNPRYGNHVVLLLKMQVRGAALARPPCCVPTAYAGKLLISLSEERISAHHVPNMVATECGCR
UniProt Q16671, sequence (Q16671 18-573): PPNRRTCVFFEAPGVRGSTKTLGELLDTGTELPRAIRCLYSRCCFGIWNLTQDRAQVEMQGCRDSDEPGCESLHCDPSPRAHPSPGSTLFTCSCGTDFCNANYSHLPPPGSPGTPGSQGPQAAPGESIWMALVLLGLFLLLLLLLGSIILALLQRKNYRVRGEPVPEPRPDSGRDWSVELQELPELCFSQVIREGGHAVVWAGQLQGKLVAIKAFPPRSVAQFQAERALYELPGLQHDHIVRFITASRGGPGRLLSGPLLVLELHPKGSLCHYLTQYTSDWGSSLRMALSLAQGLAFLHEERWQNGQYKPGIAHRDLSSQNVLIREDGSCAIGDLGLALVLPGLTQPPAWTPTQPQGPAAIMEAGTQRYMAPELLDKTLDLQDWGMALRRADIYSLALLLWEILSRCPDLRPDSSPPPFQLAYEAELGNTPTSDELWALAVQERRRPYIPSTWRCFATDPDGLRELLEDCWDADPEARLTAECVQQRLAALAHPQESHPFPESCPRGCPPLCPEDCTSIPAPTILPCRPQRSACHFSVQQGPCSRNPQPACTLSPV

Apoptosis, evaluated by measuring caspase-3/7 activity (COV434-MISRII cells) [1] | Apoptosis, evaluated by measuring caspase-3/7 activity (SKOV3-MISRII cells) [1] | decrease in Caspase-3/7 activity induced by 25 nM MIS (fold change relative to untreated cells) [2] | EC50 [3] | Molecule
12.5 nM | 6.3 nM |  |  | active recombinant MIS (LRMIS) (from UniProt P03971 26-560) (ligand)
 |  | 40% | 50.4 nM | anti-MIS antibody B10 (antibody, V domains shown) VH: EVQLVESGGSLVKPGGSLRLSCAASGFTFSNYNMNWVRQAPGKGLEWISDINGSSRSIYYADFVKGRFTISRDNATNSLYLQMNSLRAEDTAVYYCVRSSYYGGGMDVWGRGTLVTVSS VL: QSVLTQPASVSGSPGQSITISCAGTSSDVGGYNYVSWYQQHPGKAPKLMIYYDSYRPSGVSNRFSGSKSGNTASLTISGLQAEDEADYYCSSYTDYSTRVFGGGTKLAVLG
